Test results: publication PMC8804921
Where a chain is given by its changes, count along the chain named.

Assays:
[1] = biological target: BES1 (BES1-GST / GST-BES1) (UniProt Q9LN63 1-335); assay: EMSA
[2] = biological target: T1, BES1 (BES1-GST / GST-BES1);HSFA1a-MBP (Arabidopsis thaliana?;Arabidopsis …, UniProt Q9LN63;P41151 1-335;1-495, |); assay: EMSA
[3] = biological target: HSFA1a-MBP (UniProt P41151 1-495); assay: EMSA
[4] = biological target: T1, BES1 (BES1-GST / GST-BES1);HSFA1a-MBP; assay: competition

T1 sequence (Q9LN63 whole entry, chain 1 of 2): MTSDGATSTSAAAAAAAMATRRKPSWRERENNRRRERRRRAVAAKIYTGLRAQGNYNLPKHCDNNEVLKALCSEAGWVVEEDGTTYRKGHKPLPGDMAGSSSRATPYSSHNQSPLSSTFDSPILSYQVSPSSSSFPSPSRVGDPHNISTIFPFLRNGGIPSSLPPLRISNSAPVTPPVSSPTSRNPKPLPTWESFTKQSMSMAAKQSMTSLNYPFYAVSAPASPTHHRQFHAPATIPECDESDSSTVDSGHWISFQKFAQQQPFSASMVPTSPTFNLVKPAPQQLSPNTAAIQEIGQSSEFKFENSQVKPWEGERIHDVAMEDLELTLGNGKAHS
T1 sequence (P41151 whole entry, chain 2 of 2): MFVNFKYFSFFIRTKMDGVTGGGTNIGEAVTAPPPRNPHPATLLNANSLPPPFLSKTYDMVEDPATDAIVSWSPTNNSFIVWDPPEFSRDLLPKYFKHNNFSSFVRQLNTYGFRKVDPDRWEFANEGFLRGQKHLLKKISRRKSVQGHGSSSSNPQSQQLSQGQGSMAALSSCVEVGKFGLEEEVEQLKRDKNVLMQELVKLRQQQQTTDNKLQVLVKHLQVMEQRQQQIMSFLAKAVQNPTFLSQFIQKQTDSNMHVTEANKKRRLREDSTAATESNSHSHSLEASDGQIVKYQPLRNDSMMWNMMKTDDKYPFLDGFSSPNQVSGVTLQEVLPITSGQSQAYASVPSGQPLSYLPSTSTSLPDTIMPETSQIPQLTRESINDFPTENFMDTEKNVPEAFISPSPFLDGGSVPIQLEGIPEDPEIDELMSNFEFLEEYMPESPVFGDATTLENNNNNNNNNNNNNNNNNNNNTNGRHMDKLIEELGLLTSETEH
Sequence of HSFA1a-MBP (P41151 whole entry): as the sequence (P41151 whole entry, chain 2 of 2) above
Sequence of BES1 (BES1-GST / GST-BES1) (Q9LN63 whole entry): as the sequence (Q9LN63 whole entry, chain 1 of 2) above

B1: pHSP70.3 EMSA BRRE (C1 +BRRE) (dsDNA)
DNA 1: ATCCAACTCCAAAAGATCGTGCGGTTACATAGCGAGCCAT
DNA 2: ATGGCTCGCTATGTAACCGCACGATCTTTTGGAGTTGGAT
- binding result [1]: binds

B2: pHSP90.1 EMSA HSE (C1 +HSE) (dsDNA)
DNA 1: GAGTCTCGAAACGAAAAGAACTTTCTGGAATTCGTTTGCTCACAAAG
DNA 2: CTTTGTGAGCAAACGAATTCCAGAAAGTTCTTTTCGTTTCGAGACTC
- binding result [2]: binds
- binding result [3]: binds

B3: pHSP70.3 EMSA HSE (C1 +HSE) (dsDNA)
DNA 1: TTACATAGCGAGCCATCGAACCTTCTCGAAACTCGAGTACAAGACTC
DNA 2: GAGTCTTGTACTCGAGTTTCGAGAAGGTTCGATGGCTCGCTATGTAA
- binding result [2]: binds
- binding result [3]: binds

B4: pHSP70.3 EMSA HSEmut (C2 -HSE) (dsDNA)
DNA 1: B3 DNA 1 with G18T, C25A, G28T
DNA 2: B3 DNA 2 with C20A, G23T, C30A
- binding result [4]: no binding

B5: pHSP90.1 EMSA BRRE (C1 +BRRE) (dsDNA)
DNA 1: TCCATCAGCTACAAAGTCGTGTGCGATTTTGAGTCGTTGT
DNA 2: ACAACGACTCAAAATCGCACACGACTTTGTAGCTGATGGA
- binding result [1]: binds
